In assay [1] the target is T1, cynomolgus CD16 on transfected CHO cells (cAg_36) (cynomolgus, UniProt Q8SPW2 17-254).
T1 construct: whole, on cells; also called cyCD16
Briefly: flow cytometry on cyCD16-transfected CHO cells (cAg_36), anti-human IgG-FITC detection. The procedure: (§1) After washing in FACS buffer, cells were incubated in 50 μL FACS buffer without antibodies or with titrated antibodies starting at a concentration of 1000 nM followed by elven 3-fold serial dilutions for 40-50 min on ice in the dark. After washing twice, cells were incubated with FITC-conjugated goat anti-human IgG (H+L) (Jackson Immunologies, cat.: 109-096-088) for 40-50 min on ice in the dark. […] After washing, binding was measured by flow cytometry and mean fluorescence intensities (MFI) of cell samples were calculated and corrected for background staining using control cells stained with secondary antibodies only.

Assay [2] addresses T2, human CD16A (158F) on transfected CHO cells (cAg_34) (human, UniProt P08637 17-254).
T2 construct: Exact cell-anchored construct not described; also called huCD16A
Kind of assay: flow cytometry on huCD16A (158F) CHO cells (cAg_34), one-site fit of MFI, Exp. 2. The procedure:
(§2) After washing twice, cells were incubated with FITC-conjugated goat anti-human IgG (H+L) (Jackson Immunologies, cat.: 109-096-088) for 40-50 min on ice in the dark. […] After washing, binding was measured by flow cytometry and mean fluorescence intensities (MFI) of cell samples were calculated and corrected for background staining using control cells stained with secondary antibodies only.
(§3) Equilibrium dissociation constants (KD) of antibody binding were calculated by plotting MFI values and fitting a non-linear regression model for one-site binding to hyperbolic dose-response curves using GraphPad Prism.

The target in assay [3] is T1, cynomolgus CD16 on transfected CHO …. Kind of assay: flow cytometry on cyCD16 CHO cells (cAg_36), one-site fit of MFI, mean. How it is done:
as §1, §3
For orientation: In flow cytometry, cells or beads pass a laser one at a time.

Assay [4] deals with T2, human CD16A (158F) on transfected CHO …. Kind of assay: flow cytometry on huCD16A (158F) CHO cells (cAg_34), one-site fit of MFI, Exp. 1. How it is done: as §2, §3
Assay [5] shares this target. Briefly: flow cytometry on huCD16A (158F)-transfected CHO cells (cAg_34), anti-human IgG-FITC detection. The procedure:
as §1

For assay [6] the target is unchanged. Kind of assay: flow cytometry on huCD16A (158F) CHO cells (cAg_34), one-site fit of MFI, Exp. 3. The procedure:
as §2, §3

The target in assay [7] is T1, cynomolgus CD16 on transfected CHO …. Briefly: flow cytometry on cyCD16 CHO cells (cAg_36), one-site fit of MFI, Exp. 2. How it is done:
as §1, §3

Assay [8] has the same target. Briefly: flow cytometry on cyCD16 CHO cells (cAg_36), one-site fit of MFI, Exp. 3. How it is done:
as §2, §3

Assay [9] addresses T2, human CD16A (158F) on transfected CHO …. Kind of assay: flow cytometry on huCD16A (158F) CHO cells (cAg_34), one-site fit of MFI, mean. The procedure:
as §2, §3

In assay [10] the target is T1, cynomolgus CD16 on transfected CHO …. Briefly: flow cytometry on cyCD16 CHO cells (cAg_36), one-site fit of MFI, Exp. 1. How it is done:
as §2, §3

This is an account of results in US20260070986A1 (AFFIMED, published 2026).

T1 sequence (Q8SPW2 17-254): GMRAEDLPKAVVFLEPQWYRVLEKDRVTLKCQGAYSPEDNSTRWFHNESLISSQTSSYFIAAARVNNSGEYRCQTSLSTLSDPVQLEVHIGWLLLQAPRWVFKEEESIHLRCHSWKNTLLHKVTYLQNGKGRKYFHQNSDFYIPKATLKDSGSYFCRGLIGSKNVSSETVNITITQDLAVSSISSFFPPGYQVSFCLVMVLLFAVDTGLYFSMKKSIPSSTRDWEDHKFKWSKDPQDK
T2 sequence (P08637 17-254 limits assumed): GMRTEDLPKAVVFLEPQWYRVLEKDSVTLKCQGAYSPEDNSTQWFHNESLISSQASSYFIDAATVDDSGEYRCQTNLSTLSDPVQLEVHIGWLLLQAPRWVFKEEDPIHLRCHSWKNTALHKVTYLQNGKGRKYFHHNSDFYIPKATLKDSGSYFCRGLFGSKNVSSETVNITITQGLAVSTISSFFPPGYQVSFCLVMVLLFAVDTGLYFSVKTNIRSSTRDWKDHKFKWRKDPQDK

B1: scFv-IgAb_381 (Target specificity x CD16A, CD16a4) (bispecific antibody)
chain 1: EVQLVESGGGVVQPGRSLRLSCSASGFTFSGYGLSWVRQAPGKGLEWVAMISSGGSYTYYADSVKGRFAISRDNAKNTLFLQMDSLRPEDTGVYFCARHGDDPAWFAYWGQGTPVTVSSASTKGPSVFPLAPSSKSTSGGTAALGCLVKDYFPEPVTVSWNSGALTSGVHTFPAVLQSSGLYSLSSVVTVPSSSLGTQTYICNVNHKPSNTKVDKKVEPKSCDKTHTCPPCPAPEFEGGPSVFLFPPKPKDTLMISRTPEVTCVVVAVSHEDPEVKFNWYVDGVEVHNAKTKPREEQYNSTYRVVSVLTVLHQDWLNGKEYKCKVSNKALPAPIEKTISKAKGQPREPQVYTLPPSREEMTKNQVSLTCLVKGFYPSDIAVEWESNGQPENNYKTTPPVLDSDGSFFLYSKLTVDKSRWQQGNVFSCSVMHEALHNHYTQKSLSLSPGGGGGSGGGGSGGGGSGGGGSGGGGSGGGGSSYELTQPLSVSVALGQTARITCGGHNIGSKNVHWYQQKPGQAPVLVIYQDNKRPSGIPERFSGSNSGNTATLTISRAQAGDEADYYCQVWDNYNVLFGCGTKLTVLGGSGGSGGSGGSGGSGGSGGSQVQLVQSGAEVKKPGASVKVSCKASGYTFTSYYMHWVRQAPGQCLEWMGAIEPTYGSTSYAQKFQGRVTMTRDTSTSTVYMELSSLRSEDTAVYYCARGSAYYYDFADYWGQGTLVTVS
chain 2: DIQLTQSPSSLSASVGDRVTITCSVSSSISSNNLHWYQQKPGKAPKPWIYGTSNLASGVPSRFSGSGSGTDYTFTISSLQPEDIATYYCQQWSSYPYMYTFGQGTKVEIKRTVAAPSVFIFPPSDEQLKSGTASVVCLLNNFYPREAKVQWKVDNALQSGNSQESVTEQDSKDSTYSLSSTLTLSKADYEKHKVYACEVTHQGLSSPVTKSFNRGEC
Regarding B1, the EC50 (read off the curve) (as a rule, the concentration that produces a half-maximal response) in [1] is roughly 40 nM; in [5], roughly 30 nM. Also, the Kd (commonly the equilibrium constant for the complex coming apart) in assay [2] stood at 29.3 nM; in assay [3], 32.8 nM; in assay [4], 22.1 nM; in assay [6], 27.1 nM; in assay [7], 31.7 nM; in assay [8], 28.2 nM. The Kd in assay [9] turned out to be 26.2 nM; in assay [10], 38.6 nM.
